# Patent US20210355185A1
# Biological target: IL-12 receptors (human) (UniProt P42701)
# Assay: cell-based or functional assay
# Sequence of IL-12 receptors (human) (Q99665 24-862, chain 2 of 2, other chains not shown): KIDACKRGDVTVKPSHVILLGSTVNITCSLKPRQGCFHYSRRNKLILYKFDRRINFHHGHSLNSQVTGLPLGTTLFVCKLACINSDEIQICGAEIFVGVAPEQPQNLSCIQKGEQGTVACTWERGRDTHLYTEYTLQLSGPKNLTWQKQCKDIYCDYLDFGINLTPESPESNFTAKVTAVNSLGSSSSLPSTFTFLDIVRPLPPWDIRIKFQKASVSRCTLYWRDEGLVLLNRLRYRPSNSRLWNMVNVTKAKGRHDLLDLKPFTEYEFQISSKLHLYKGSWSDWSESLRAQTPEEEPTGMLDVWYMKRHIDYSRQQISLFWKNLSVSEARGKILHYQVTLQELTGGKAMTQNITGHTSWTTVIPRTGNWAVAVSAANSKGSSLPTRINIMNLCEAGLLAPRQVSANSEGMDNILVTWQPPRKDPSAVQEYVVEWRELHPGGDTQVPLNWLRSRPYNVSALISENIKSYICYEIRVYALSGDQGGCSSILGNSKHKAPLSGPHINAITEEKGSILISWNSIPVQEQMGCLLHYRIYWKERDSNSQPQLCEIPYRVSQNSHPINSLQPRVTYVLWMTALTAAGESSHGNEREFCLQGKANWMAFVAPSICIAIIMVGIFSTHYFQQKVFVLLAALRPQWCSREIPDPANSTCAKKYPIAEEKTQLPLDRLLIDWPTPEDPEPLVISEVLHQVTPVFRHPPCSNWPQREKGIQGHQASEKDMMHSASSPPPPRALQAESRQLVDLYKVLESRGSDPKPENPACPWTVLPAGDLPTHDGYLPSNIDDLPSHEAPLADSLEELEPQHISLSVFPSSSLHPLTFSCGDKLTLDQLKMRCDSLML
row,Substance,reduction in potency (EC50 for STAT4 phosphorylation) relative to WT IL-12-Fc XENP27201 [fold]
1,IL-12-Fc fusion comprising IL-12p35(D55Q/N151D) (from UniProt P29460 23-328; P29459 23-219),2
2,IL-12-Fc fusion comprising IL-12p35(E153Q) (from UniProt P29460 23-328; P29459 23-219),> 2
3,IL-12-Fc fusion comprising IL-12p40(E235Q) (from UniProt P29460 23-328; P29459 23-219),> 2
